Results: paper PMC3630103 (2013)

Target: CHIKV pE2-E1 (E3-E2-E1) of the CHIKV-LR strain (Chikungunya virus (strain La Reunion …, UniProt Q8JUX5))
Experiment: SPR

Chain of CHIKV pE2-E1 (E3-E2-E1) of the CHIKV-LR strain (Chikungunya virus (Q8JUX5 whole entry, looked up): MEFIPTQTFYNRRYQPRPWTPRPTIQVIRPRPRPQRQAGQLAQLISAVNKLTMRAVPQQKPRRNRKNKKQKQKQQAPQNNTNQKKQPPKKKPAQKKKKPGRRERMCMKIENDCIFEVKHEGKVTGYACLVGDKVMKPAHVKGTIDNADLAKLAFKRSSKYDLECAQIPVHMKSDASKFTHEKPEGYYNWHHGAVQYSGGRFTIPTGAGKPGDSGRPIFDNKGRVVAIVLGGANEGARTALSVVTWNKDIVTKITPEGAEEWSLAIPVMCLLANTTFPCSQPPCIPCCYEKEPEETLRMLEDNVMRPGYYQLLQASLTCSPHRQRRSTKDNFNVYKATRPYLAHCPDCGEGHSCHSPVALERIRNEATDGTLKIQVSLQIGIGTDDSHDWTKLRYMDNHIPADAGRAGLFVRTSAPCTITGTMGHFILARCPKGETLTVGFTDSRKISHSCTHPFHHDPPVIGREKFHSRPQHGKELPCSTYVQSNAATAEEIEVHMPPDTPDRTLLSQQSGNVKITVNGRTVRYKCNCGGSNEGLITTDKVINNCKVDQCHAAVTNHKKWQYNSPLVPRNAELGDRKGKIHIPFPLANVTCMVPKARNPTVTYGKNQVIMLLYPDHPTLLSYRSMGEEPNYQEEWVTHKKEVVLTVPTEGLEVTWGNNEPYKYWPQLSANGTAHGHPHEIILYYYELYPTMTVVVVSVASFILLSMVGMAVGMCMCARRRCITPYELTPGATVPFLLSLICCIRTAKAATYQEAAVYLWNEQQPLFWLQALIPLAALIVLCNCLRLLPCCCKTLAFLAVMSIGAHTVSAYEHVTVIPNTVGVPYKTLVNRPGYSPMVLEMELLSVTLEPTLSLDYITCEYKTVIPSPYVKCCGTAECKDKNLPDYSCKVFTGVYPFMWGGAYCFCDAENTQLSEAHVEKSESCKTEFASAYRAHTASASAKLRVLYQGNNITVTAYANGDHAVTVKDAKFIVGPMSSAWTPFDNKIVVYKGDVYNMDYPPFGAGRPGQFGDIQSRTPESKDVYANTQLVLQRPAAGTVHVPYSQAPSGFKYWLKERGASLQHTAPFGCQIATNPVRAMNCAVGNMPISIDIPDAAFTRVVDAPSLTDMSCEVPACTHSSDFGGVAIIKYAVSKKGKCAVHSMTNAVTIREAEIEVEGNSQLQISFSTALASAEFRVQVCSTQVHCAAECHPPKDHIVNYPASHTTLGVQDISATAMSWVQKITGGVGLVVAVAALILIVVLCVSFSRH

B1: chimeric mouse-human CHK-152 N297Q (aglycosyl variant) (antibody, V domains shown)
VH: QVQLQQPGAALVKPGASAMMSCKASGYTFTSYWITWVKQRPGQGLEWIGDIYPGTGRTIYKEKFKTKATLTVDTSSSTAFMQLNSLTSEDSAVYYCARGYGSPYYALDYWGQGTSVTVSS
VL: DIVLTQSPASLAVSQGQRATISCKASQSVDYDGDSYVNWYQQKPGQSPKLLIYDASNLESGIPARFSGSGSGTDFTLNIHPVEEEDVATYYCQESNEDPRTFGGGTKLEIK
Question: With B1 as the binder, how does the Kd read?
Answer: 3.9 nM

Question: What about the koff of the same binder?
Answer: 0.00051 s⁻¹

B2: chimeric mouse-human CHK-152 (antibody, V domains shown)
VH: B1 VH
VL: B1 VL
Question: B2 was tested. Which Kd did it give?
Answer: 3.1 nM

Question: And the koff?
Answer: 0.0004 s⁻¹
